# Where two headings read alike, the source gives them in different places.
# Key:
# FlAsH-tagged Met1-diUb [1] = target: T1, FlAsH-tagged Met1-diUb (UniProt P0CG48 1-76; P0CG48 1-71, Lumio Green (FlAsH) on the C-terminal WCCPGCC motif); test: FP
# FlAsH-tagged Met1-diUb [2] = target: T1, FlAsH-tagged Met1-diUb; test: FP; remark: listed apart in the source
Kd (FlAsH-tagged Met1-diUb [1]) [µM],Kd (FlAsH-tagged Met1-diUb [2]) [µM],Binder
36.1,,OTULIN C129A TQK100-102AAA (enzyme) MSRGTMPQPEAWPGASCAETPAREAAATARDGGKAAASGQPRPEMQCPAEHEEDMYRAADEIEKEKELLIHERGASEPRLSVAPEMDIMDYCKKEWRGNAAAATCMKMGYEEVSQKFTSIRRVRGDNYAALRATLFQAMSQAVGLPPWLQDPELMLLPEKLISKYNWIKQWKLGLKFDGKNEDLVDKIKESLTLLRKKWAGLAEMRTAEARQIACDELFTNEAEEYSLYEAVKFLMLNRAIELYNDKEKGKEVPFFSVLLFARDTSNDPGQLLRNHLNQVGHTGGLEQVEMFLLAYAVRHTIQVYRLSKYNTEEFITVYPTDPPKDWPVVTLIAEDDRHYNIPVRVCEETSL
,3.7,NEMO UBAN domain (domain or fragment) GMQLEDLKQQLQQAEEALVAKQEVIDKLKEEAEQHKIVMETVPVLKAQADIYKADFQAERQAREKLAEKKELLQEQLEQLQREYSKLKAS

# From publication PMC3690481 (2013)
